Target: T1, Flag-IRF3 (human, UniProt Q14653 1-427)
T1 construct: not shown: Flag, N-terminal, kept
T1 sequence (looked up): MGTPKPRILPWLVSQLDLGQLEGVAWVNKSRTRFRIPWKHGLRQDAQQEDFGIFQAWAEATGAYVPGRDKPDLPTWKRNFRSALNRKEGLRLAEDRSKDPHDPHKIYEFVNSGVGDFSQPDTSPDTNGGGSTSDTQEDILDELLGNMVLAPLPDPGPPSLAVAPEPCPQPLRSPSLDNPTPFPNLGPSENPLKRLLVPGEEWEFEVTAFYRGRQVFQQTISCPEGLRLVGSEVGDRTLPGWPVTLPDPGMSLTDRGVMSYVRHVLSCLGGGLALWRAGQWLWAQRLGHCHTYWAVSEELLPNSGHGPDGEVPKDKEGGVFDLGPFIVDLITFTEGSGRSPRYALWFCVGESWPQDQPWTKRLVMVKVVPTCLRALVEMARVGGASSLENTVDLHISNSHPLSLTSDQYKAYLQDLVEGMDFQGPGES
Assay: pull-down; lysates of 293T cells with ectopic Flag-TBK1 or Flag-IRF3 incubated with GST or the GST-ERRα fusion protein
Conditions: one partner purified

- binding result: binds
B1: GST-ERRα fusion protein (natural protein, UniProt P11474 1-423, looked up)
chain: MSSQVVGIEPLYIKAEPASPDSPKGSSETETEPPVALAPGPAPTRCLPGHKEEEDGEGAGPGEQGGGKLVLSSLPKRLCLVCGDVASGYHYGVASCEACKAFFKRTIQGSIEYSCPASNECEITKRRRKACQACRFTKCLRVGMLKEGVRLDRVRGGRQKYKRRPEVDPLPFPGPFPAGPLAVAGGPRKTAAPVNALVSHLLVVEPEKLYAMPDPAGPDGHLPAVATLCDLFDREIVVTISWAKSIPGFSSLSLSDQMSVLQSVWMEVLVLGVAQRSLPLQDELAFAEDLVLDEEGARAAGLGELGAALLQLVRRLQALRLEREEYVLLKALALANSDSVHIEDAEAVEQLREALHEALLEYEAGRAGPGGGAERRRAGRLLLTLPLLRQTAGKVLAHFYGVKLEGKVPMHKLFLEMLEAMMD
notes: also called estrogen-related receptor α
